In article PMC314469, “Protein Interaction Networks by Proteome Peptide Scanning” (PLoS Biology, 2004) one finds normalised SPOT signal, Boehringer light units (BLU); mean over the file's lines of this peptide data, which are given here for 15 molecules.

For the first test, the target named is T1, Boi2 SH3 (BOI2_YEAST), P39969.
T1 chain: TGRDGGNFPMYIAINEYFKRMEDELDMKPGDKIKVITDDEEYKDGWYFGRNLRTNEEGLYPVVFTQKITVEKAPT
The test is described as follows: SPOT array.
Take LRKPRAPMRNVIIT [YER141W 449-462]: the normalised SPOT signal, Boehringer light units (BLU); mean over the file's lines of this peptide is 90.5.
LPPPRSPNRPTLSD [YER158C 363-376] gave a normalised SPOT signal, Boehringer light units (BLU); mean over the file's lines of this peptide of 48500.
As for LPLPTLPDRQLFQT [YPL115C 570-583], the normalised SPOT signal, Boehringer light units (BLU); mean over the file's lines of this peptide worked out at 48.9.
On the same count and under the same terms, as for LRKPSAPKRMSSIS [YMR086W 52-65], the figure is 77.6.
The molecule LPAPHRPEKYKERF [YGR154C 67-80] had a normalised SPOT signal, Boehringer light units (BLU); mean over the file's lines of this peptide of 35.8.
Still for that read-out and setting: as for LPVPPPPVRPSISF [YDL140C 239-252], the figure is 51.2; as for LRIPETPVKKSPLV [YJL187C 191-204], 42.
The same measure, in the same setting: to LQIPPLPLKLLTPV [YGR204W 307-320] belongs 49.8; to LMPPDSPPRMTENT [YBR275C 1790-1803], 162.
Still for that read-out and setting: to LPVPQLPPKLLVYP [YBR279W 17-30] belongs 57.9; to LNSPDLPERTKLRN [YDL225W 445-458], 31.1; to LRDPVIPIKLAAEK [YGL195W 2564-2577], 28.8.
With LPPPIIPLRKYGHN [YGR233C 693-706], the normalised SPOT signal, Boehringer light units (BLU); mean over the file's lines of this peptide was found to be 353.
Same read-out and setting: to LQNPLGPERTFLIM [YLR253W 491-504] belongs 32.9; to LPAPPPPPRRGPAP [YOR181W 341-354], 55.6.

The next test deals with T2, Boi1 SH3 (BOI1_YEAST), P38041.
T2 chain: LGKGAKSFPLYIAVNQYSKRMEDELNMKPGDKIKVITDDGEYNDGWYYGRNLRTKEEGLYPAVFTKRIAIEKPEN
The test is described as follows: SPOT array.
LRKPRAPMRNVIIT [YER141W 449-462] returned a normalised SPOT signal, Boehringer light units (BLU); mean over the file's lines of this peptide of 197.
Still for that read-out and setting: to LPPPRSPNRPTLSD [YER158C 363-376] belongs 53500; to LPLPTLPDRQLFQT [YPL115C 570-583], 125.
Same read-out and setting: as for LRKPSAPKRMSSIS [YMR086W 52-65], the figure is 119; as for LPAPHRPEKYKERF [YGR154C 67-80], 89.9.
Turning to LPVPPPPVRPSISF [YDL140C 239-252], the normalised SPOT signal, Boehringer light units (BLU); mean over the file's lines of this peptide turned out to be 37.7.
The same measure, in the same setting: to LRIPETPVKKSPLV [YJL187C 191-204] belongs 66.9; to LQIPPLPLKLLTPV [YGR204W 307-320], 113.
The same measure, in the same setting: to LMPPDSPPRMTENT [YBR275C 1790-1803] belongs 47.3; to LPVPQLPPKLLVYP [YBR279W 17-30], 375.
The same measure, in the same setting: to LNSPDLPERTKLRN [YDL225W 445-458] belongs 6110; to LRDPVIPIKLAAEK [YGL195W 2564-2577], 200.
The molecule LPPPIIPLRKYGHN [YGR233C 693-706] displayed a normalised SPOT signal, Boehringer light units (BLU); mean over the file's lines of this peptide of 20400.
Molecule LQNPLGPERTFLIM [YLR253W 491-504] showed a normalised SPOT signal, Boehringer light units (BLU); mean over the file's lines of this peptide of 121.
Turning to LPAPPPPPRRGPAP [YOR181W 341-354], the normalised SPOT signal, Boehringer light units (BLU); mean over the file's lines of this peptide was determined as 2960.

In another test the target is T3, Rvs167 SH3 (RV167_YEAST), P39743.
T3 chain: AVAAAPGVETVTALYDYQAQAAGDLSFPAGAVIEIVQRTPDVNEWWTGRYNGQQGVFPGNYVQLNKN
The test is described as follows: SPOT array.
LRKPRAPMRNVIIT [YER141W 449-462] registered a normalised SPOT signal, Boehringer light units (BLU); mean over the file's lines of this peptide of 229.
Molecule LPPPRSPNRPTLSD [YER158C 363-376] showed a normalised SPOT signal, Boehringer light units (BLU); mean over the file's lines of this peptide of 15000.
LPLPTLPDRQLFQT [YPL115C 570-583] registered a normalised SPOT signal, Boehringer light units (BLU); mean over the file's lines of this peptide of 3860.
Still for that read-out and setting: to LRKPSAPKRMSSIS [YMR086W 52-65] belongs 276; to LPAPHRPEKYKERF [YGR154C 67-80], 28.8.
Same read-out and setting: as for LPVPPPPVRPSISF [YDL140C 239-252], the figure is 769; as for LRIPETPVKKSPLV [YJL187C 191-204], 1.6.
The same measure, in the same setting: as for LQIPPLPLKLLTPV [YGR204W 307-320], the figure is 78.2; as for LMPPDSPPRMTENT [YBR275C 1790-1803], 1.2; as for LPVPQLPPKLLVYP [YBR279W 17-30], 64.4.
In turn, LNSPDLPERTKLRN [YDL225W 445-458] showed a normalised SPOT signal, Boehringer light units (BLU); mean over the file's lines of this peptide of 23300.
LRDPVIPIKLAAEK [YGL195W 2564-2577]: the normalised SPOT signal, Boehringer light units (BLU); mean over the file's lines of this peptide is 2.2.
On the same count and under the same terms, to LPPPIIPLRKYGHN [YGR233C 693-706] belongs 1930.
For the molecule LQNPLGPERTFLIM [YLR253W 491-504], the normalised SPOT signal, Boehringer light units (BLU); mean over the file's lines of this peptide is 27.6.
Still for that read-out and setting: as for LPAPPPPPRRGPAP [YOR181W 341-354], the figure is 5620.

In another test the target is T4, Yhr016c SH3 (YSC84_YEAST), P32793.
T4 chain: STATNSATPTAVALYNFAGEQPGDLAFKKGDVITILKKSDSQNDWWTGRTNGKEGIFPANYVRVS
The test is described as follows: SPOT array.
LRKPRAPMRNVIIT [YER141W 449-462] returned a normalised SPOT signal, Boehringer light units (BLU); mean over the file's lines of this peptide of 257.
The same measure, in the same setting: as for LPPPRSPNRPTLSD [YER158C 363-376], the figure is 12200; as for LPLPTLPDRQLFQT [YPL115C 570-583], 6800.
In turn, LRKPSAPKRMSSIS [YMR086W 52-65] came in with a normalised SPOT signal, Boehringer light units (BLU); mean over the file's lines of this peptide of 270.
In turn, LPAPHRPEKYKERF [YGR154C 67-80] yielded a normalised SPOT signal, Boehringer light units (BLU); mean over the file's lines of this peptide of 171.
Same read-out and setting: as for LPVPPPPVRPSISF [YDL140C 239-252], the figure is 3380; as for LRIPETPVKKSPLV [YJL187C 191-204], 37.4.
On the same count and under the same terms, to LQIPPLPLKLLTPV [YGR204W 307-320] belongs 195; to LMPPDSPPRMTENT [YBR275C 1790-1803], 485.
Take LPVPQLPPKLLVYP [YBR279W 17-30]: the normalised SPOT signal, Boehringer light units (BLU); mean over the file's lines of this peptide was found to be 196.
Molecule LNSPDLPERTKLRN [YDL225W 445-458] gave a normalised SPOT signal, Boehringer light units (BLU); mean over the file's lines of this peptide of 59600.
Molecule LRDPVIPIKLAAEK [YGL195W 2564-2577] showed a normalised SPOT signal, Boehringer light units (BLU); mean over the file's lines of this peptide of 0.
Same read-out and setting: to LPPPIIPLRKYGHN [YGR233C 693-706] belongs 18400; to LQNPLGPERTFLIM [YLR253W 491-504], 49.
On the same count and under the same terms, as for LPAPPPPPRRGPAP [YOR181W 341-354], the figure is 1260.

The target of the next test is T5, Yfr024 SH3 (LSB3_YEAST), P43603.
T5 chain: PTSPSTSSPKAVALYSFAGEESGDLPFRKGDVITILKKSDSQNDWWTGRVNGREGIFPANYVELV
The test is described as follows: SPOT array.
Regarding LRKPRAPMRNVIIT [YER141W 449-462], the normalised SPOT signal, Boehringer light units (BLU); mean over the file's lines of this peptide came out at 3330.
Molecule LPPPRSPNRPTLSD [YER158C 363-376] yielded a normalised SPOT signal, Boehringer light units (BLU); mean over the file's lines of this peptide of 33900.
As to LPLPTLPDRQLFQT [YPL115C 570-583], the normalised SPOT signal, Boehringer light units (BLU); mean over the file's lines of this peptide was found to be 15100.
Still for that read-out and setting: as for LRKPSAPKRMSSIS [YMR086W 52-65], the figure is 2940; as for LPAPHRPEKYKERF [YGR154C 67-80], 1230; as for LPVPPPPVRPSISF [YDL140C 239-252], 11400.
On the same count and under the same terms, to LRIPETPVKKSPLV [YJL187C 191-204] belongs 164; to LQIPPLPLKLLTPV [YGR204W 307-320], 1670.
On the same count and under the same terms, as for LMPPDSPPRMTENT [YBR275C 1790-1803], the figure is 1520; as for LPVPQLPPKLLVYP [YBR279W 17-30], 4360; as for LNSPDLPERTKLRN [YDL225W 445-458], 35600.
For the molecule LRDPVIPIKLAAEK [YGL195W 2564-2577], the normalised SPOT signal, Boehringer light units (BLU); mean over the file's lines of this peptide was 68.1.
Regarding LPPPIIPLRKYGHN [YGR233C 693-706], the normalised SPOT signal, Boehringer light units (BLU); mean over the file's lines of this peptide was found to be 15900.
Turning to LQNPLGPERTFLIM [YLR253W 491-504], the normalised SPOT signal, Boehringer light units (BLU); mean over the file's lines of this peptide worked out at 197.
Still for that read-out and setting: to LPAPPPPPRRGPAP [YOR181W 341-354] belongs 6280.
